# Laboratory results taken from the nanobody polyreactivity screen of Harvey et al. (2022).
# Test: yeast display, Sf9 membrane polyspecificity reagent, FACS + sequencing; frameworks hold sequencing errors
# In short: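 A nanobody's polyreactivity label depends on the gate it was sorted from. Yeast display cells were stained with 10% biotinylated, detergent-solubilized Sf9 membrane reagent for 1 hour at 4 °C, enriched on streptavidin microbeads and sorted by FACS. The low and high (top ~1%) gates were set on anti-HA fluorescence for expression and streptavidin fluorescence for reagent binding.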
row,Sequence,polyreactivity (PSR sort gate)
1,QVQLVASGGGLVQAGGSLRLSCAASGSTFARYAMGWYTPAPGKERELVAAITEGGDRTSYADSVKGRFTISRDNAKNHVYLQMHSLKPEDTAVYYCAAERRYESWYFGYRTMDYWGQGTQVTVSS,low polyreactivity
2,QVQLVESGGGLVQAGGSLRLSCAASGGTLRGYAMGWYRQAPGKERELVAAISKRSGSTYYADSVKGRFTISRDNAKNTVYLQMNSLKPEDTAVYYCNTRGLTTEGHYYWGQGTQVTVSS,high polyreactivity
3,QVQLVESGGGLVQAGGSLRLSCAASGSIIDANAMGWYRQAPGKERELVAAITSGDSTYYADSVKGRFTISRDNAKNTVYLQMNSLKPEDTAVYYCAADPVWHYYRMDYWGQGTQVTVSS,low polyreactivity
4,QVQLVESGGGLVQAGGSLRLSCAASGYLIGGNAMGWYRQAPGKERELVAVISSRAGRTYYADSVKGRFTISRDNAKNTVYLQMNSLKPEDTAVYYCNRVFSYQYKRDYWGQGTQVTVSS,high polyreactivity
5,QVQLVESRGGLVQAGGSLRLSCAASGITFGRNTMGWYRQAPGKERELVAAIDSGGNTYAESVKGRFTISRDNAKKTVYFQMNSLKPEDTAVYYCAVDGGEFSSYGYWGQGSQVTVSS,low polyreactivity
6,QVQLVESGGGLVQAGGSLRLSCAASGLTFEKYAMGWYRQAPGKERELVAAISQDGGSTYYADSVKGRFTISRDNAKNTVYLQMNSLKPEDTAVYYCATGLGYFSRLDYWGQGTQVTVSS,low polyreactivity
7,QFQLVESGGGLVQAGGSLRLSCAASGRIFYKYVMGWYRQAPGKERELVAAINLSGGTTYYADSVKGRFTISRDNAKNTVYLQMNSLKPEDTAVYYCAADSFTLTHYYWGQGTQVTVSS,low polyreactivity
8,QVQHVESGGGLVQAGGSLRLSCAASGRIFSRYAMGWYRQAPGKERELVAAITSGGSTYYADSVKGRFTISRDNAKNTVYLQMNSLKPEDTAVSYCATRYRFGSYHSIYDYWGQGTQVTVSS,high polyreactivity
9,QVQLVESRGGLVQAGGSLRLSCAASGRTFVPYAMGWYIQAPGKERELVAAISYSGDSTYYADSVKGRFTISRDNAKNTVYLQLNSLKPEDTAVYYCAAPSYFRMGYWGQGTQVTVSS,low polyreactivity
10,QVKLKESVGGLVQAGGSLRLSCAASGSISATGNMGWYRQAPGEERELVAAINFGSNTYYADSVKGRFTISRDNAKNTVYLQKSGLKPEDTPVYYCAVDGCYVGPYYYWGQGTQVTVSS,high polyreactivity
11,QVQLVESGGGLVQAGGSLRLSCAASGYTFQYNDMGWYRQAPGKERELVAGISIGGSTNYADSVKGRFTISRDNAKNTVYLQMNSLKPEDTAVYYCAARTLWFPGTTSTSVGSKYGYWGQGTQVSVSS,low polyreactivity
12,QVQLVESGGGLVQAGGSLRLSCAASGRTFATYAMGWYRQEPGKERELVAAISTSGGSTYYADSVKGRFTISRDNAKNTVYLQMNSLKPEDTAVYYCAAVLSWRGYTCPVYAFDYWGQGTQVTVSS,high polyreactivity
13,QVQLVESGGGLVQAGGILRLSCAASGRTFNSNAMGWYRQAPGKERELVAAITGGGGRTYYADSVKGRFTISRDNAKNTVYLQMNSVKPEDTAVYYCYAARWYRGYDYWGQVTQVTVSS,high polyreactivity
14,QVQLVESGGGLVQAGGSLRLSCAASGSIFKVYAMGWYRQAPGKERELVASISYSGGSTYYADSVKGRFTISRDNAKNTVYLQMNSLKPEDTAVYYCNADTITYQGYDYGYWGQGTQVTVSS,low polyreactivity
15,QVQLVESGGGLVQAGGSLRLSCAASGSIFYAYAMGWYRQAPGKEREFVAVISYSGGSTYYADSVKGRFTISRDNAKNTVYLQMYSLKPEDTAVYYCAARYRRPYSYYYWGQGTQVTVSS,high polyreactivity
16,QVQLVESGGRLVQAGGSLRLSCAAYGSTFQVNAMGWYRQAPGKERELVAAISRGGGSTYYADSVKGRFTISRDNAKNTVYLQMNSLKPEETAVYYCAAVYYRRISQGDTQTYYQYNYWGQGTQVTVSS,high polyreactivity
17,QVQLVESGGGLVQAGGSLRLSCADSGFNFYQYAMGWYRQAPGKERELVAVISGSGSRTYYADSVKGRFTISRDNAKNTVYLQMNSLKPEDTAVYYCAAKGVIISYDTLRYDSWGQGTQVTVSS,high polyreactivity
18,QVQLVESGGGLVQAGGSLRLSCAASGRTIIYNTMGWYRQAPGKEREFVAAINWSGGSTYYADSAKGRFTISRDNAKNTVYLQMNSLKPEDTAVYYCNAEAGYYRALIYDYWGQGTQVTVSS,low polyreactivity
19,QVQLVESGGGLVQAGGSLRLSCAASGITFIVKTMGWYRQAPGKEREFVATISANSDGTYYADSVKGRFTISRDNAKNTVYLQMNSLKPEDTAVYYWGQGTQVTVSS,low polyreactivity
20,QVQLVESGGGLVQAGGSLRLSCAASGFTFSGNAMGWYRQAPGKEREIVAAITARGGNTFYADSVKGRFTISRDNAKNTVYLQMNSLQPEETAVSYCKRGPYYSSSKYRFSAYHRAYWGQGNQVTVSS,high polyreactivity
21,QVQLVESGGGLVQAGGSLRLSCAASGRIFDAKVMGWYRQAPGKERELVAAISASAGSTSYADSVKGRFTISRDNAKNTVYLQMNSLKPEDTSVYYCAADPYQLWHYYYFGMDYWGQGTQVTVSS,low polyreactivity
22,QVQLVESGGGLVQAGGSLRLSCAASGGIFGGYAMGWYRPAPGKEGELVAVITSGGSTYYADSVKGRFTISRDNAKNTVYLQMNSLKPEDTAVYYCAALGQYQTVYSDGYDYYYWGQGTKVTVSS,low polyreactivity

row,Sequence,polyreactivity (PSR sort gate)
1,QVQLVESGGGLVQAGGSLRLSCAASGSIFRSYAMGWYRQAPGNERELVAAITRSGGSTYYADSVKGRFTISRDNAKNTVYLQMNSLKPEDTAVYYCAAEYYSYTWGWGHGYWGQGTQVTVSS,high polyreactivity
2,QVQLVESGGGLVQAGGSLRLSCAASGSIFSVNAMGWYRQAPGKERELVATIRWSGSSTYYADSVKGRFTISRDNAKNSVYLQMKSLKPEDTAVYYCAADSTEIPWCGMDYWGQGTQVTLSS,low polyreactivity
3,QVQLVESGGGLVQAGGSLRLSCAASGSTFYVYAMGWYRQAPGKERELVATISSGGITNYADSVKGRFTISRDNAMNTVYLQMNSLKPEDTAVYYCNAKKAYYGRGMNYWGQGTQVTVSS,low polyreactivity
4,QVQLVESGGGLVQAGGSLRLSCAASGRIFPVYAMGWYRQAPGKERELVATITSRTGRTYYADSVKGRFTISRDNAKNTVYLQMNSLIPEDTAVSYCAARGYYSAPGYGYWGQGTQVTVSS,high polyreactivity
5,QVQLVESGGGLVQAGGSLRLSCAASGFTFYAYAMGWYRQAPGKERELVAAISKRGGITYYADSVKGRFTISRDNAKNTVYLQMNSLKPEDTAVYYCNADRRRRSGGFAGWHFQRNDYWGQGTLVTVSS,low polyreactivity
6,QVQLVESGGGLVQAGGSLRLSCAASGFTFQIYAMGWYRQAPGKERELVAAITWSGGRTYYGDSVKGRFTISRDNAKNTVYLQMNSLKREDTAVYYSNARYTTGSDPGGPGTYGYWGQGTQVTVSS,low polyreactivity
7,QVQIVESGGGLFQAGGSLRISCAASGSTIRANPMGWYRQAPGKERELVAAITKNGGSTYYADSVKGRYTISRDNAKYTVYLPMNTLIPEDNGVYYCAARRSSRRPPYYYWGQGTQVTVSS,high polyreactivity
8,QVQLVESGGGLVQAGGSLRLSCAASGSTFFSNAMGWYRQAPGKERELVATIRVGGGSTYADSVKGRFTISRDNAKNTVYLQMNSLKPEDTADYYCAADDSDTRYTRSRYGYWGQGTQVTVSS,low polyreactivity
9,QVQLVESGGGLVQAGGSLRLSCAASGSISVVYDMGWYRQAPGTERELVAAIDWSGGSTYYADSVKGRFTISRDNAKNTVYLQMNSLKPEDTAVYYCAADDKVRYYWGQGTQVTVSS,low polyreactivity
10,QVQLVESGGGLVQAGGSLRLRCASSGYIFTYYAMGWYRQAPGKERELVAAISWSGGRTYYADSVKGRFTISRDNAKITVYLQMNSLKPEDTAVYYCNAVDKRYPDMDYWGQGTQVTVSS,high polyreactivity
11,QVQLVESGGGLVQAGGSLRLSCAASGSIFGSYTMGWYRQAPGKERELVAAISLGGGSTYYADSVKGRFTISRDNAKNTVYLQMNSLKPEDTAVYYCAAVQIVSGTYDYYWGQGTQVTVSS,low polyreactivity
12,QVKLVESGGGLVQAGGSLRLSCAASGSTFPRYAMGWYRQAPGKEREFVAVIWSGGSTYYADSVKGRFTISRDNAKNTVYFQMNSLIPEDTAVYYCAAEYHTLSKYSGYATHDYWGQGTQVTVSS,low polyreactivity
13,QVQLVESGGGLVQAGGSLRLSCAASGRIFKAYAMGWYRQAPGKERELVAVITGTGRTTYADSVKGRFTISRDNAKNTVYLQMNSLKPEDTAVYYCNVRWYYKGDYWGQGTLVTVSS,high polyreactivity
14,QVQLVDSGGGLVQAGGSLRLSCAASGSIFLLYVMGWYRQAPGKERELVAAISSGGSTNYADSVKGRFTISRDNAKITVYLQMNSLKPEDTAVYYCNAVAGPQGVKLYDYWGQGTQVTVSS,low polyreactivity
15,QVQLVESGGGLVQAGGSLRLSCAASGIIFDTYAMGWYRPAPGKEREFVARISYSGGTTYYADSVKGRFTSSRDNAKNTVYLQMNSLKPEDTAVYYCATVSRRFYRWSSRYDYWGQGTQVTVSS,high polyreactivity
16,QVQLVESGGGLVQAGGSLRLSCAASGSIFFYNAMGWYRQAPGKERELVAAITTRGGSTYYADSVKGRFTISRDNAKNTVYLQMNSLKPEDTAVYYCARSSRGKLDYWGQGTQVTVSS,low polyreactivity
17,QVHFVESGGGLVQAGGSLSLSCAASGLTFSYYAMGWYRQAPGKERELVARISNSGGCTYYADSVKGRFTISRDNAKITVYLQMNSLKPEDTAVYYCAALHTSLHRNKYEYWGQGTQVTVSS,high polyreactivity
18,QVQLVESGGGLVQAGGSLRLSCAASGSIFNSNGMGWYRQAPGKERELVAAITGGGSTNYADSVKGRFTISRDYAKNTVYLQMNSLKPEDTAVYYCAKRSYRTHTYDYWGQGTQVTVSS,low polyreactivity
19,QVQLVESGGGLVQAGGSLRLSCAASGITSGTYAMGWYRQAPGKERELVAGISRSVTRTYYADSVKGRFTISRDNAKNTVYLQMNSLKPEDTAVYYCNTYVVRRPGYGYWGQGTQVTVSS,high polyreactivity
20,QVQLVESGGGLVQAGGSLRLSCAASGSTFIYYAMGWYRQAPGKEWELVAAITSAGRTNYADSVKGRFTISLDNAKHTVYLQMNSLKPEDTAVYYCAAAYRPRKHHYDYWGQGTQVTVSS,high polyreactivity
21,QVQLVESGGGLVQAGGSLRLSCAASGIIFSYYTMGWYRQAPGKERELVAAISRTGGRTYYADSVKGRFTISRDNAKNTVYLQMNSLKPEDTAVYYCAAEQQYASICYDYWGQGTEVTVSS,high polyreactivity
